The values that follow are results of earlier work, collected in paper PMC4853784.

In this data set the target is V1b receptor (Homo sapiens) (UniProt P47901). In words: radioligand.
UniProt P47901, sequence (P47901 whole entry): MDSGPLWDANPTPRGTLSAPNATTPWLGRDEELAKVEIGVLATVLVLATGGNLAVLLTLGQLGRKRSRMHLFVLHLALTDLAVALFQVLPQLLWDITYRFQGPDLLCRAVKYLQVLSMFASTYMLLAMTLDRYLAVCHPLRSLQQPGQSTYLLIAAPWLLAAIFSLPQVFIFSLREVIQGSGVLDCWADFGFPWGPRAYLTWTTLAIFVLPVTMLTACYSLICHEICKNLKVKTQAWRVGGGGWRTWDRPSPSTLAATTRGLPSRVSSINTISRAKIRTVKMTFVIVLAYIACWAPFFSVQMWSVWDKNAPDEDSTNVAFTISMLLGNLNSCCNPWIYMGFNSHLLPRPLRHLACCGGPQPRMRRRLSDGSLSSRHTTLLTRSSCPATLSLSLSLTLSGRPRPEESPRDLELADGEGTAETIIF

Turning to vasopressin (from UniProt P01185), the Kd is 1.8 nM.

One may read the Kd as a measure of binding affinity in units of concentration.
